Results on ten variants are retold here after FireProtDB (doi:10.1093/protein/9.5.425).

B1: Tryptophan synthase alpha chain, P0A877 (parent)
chain: MERYESLFAQLKERKEGAFVPFVTLGDPGIEQSLKIIDTLIEAGADALELGIPFSDPLADGPTIQNATLRAFAAGVTPAQCFEMLALIRQKHPTIPIGLLMYANLVFNKGIDEFYAQCEKVGVDSVLVADVPVEESAPFRQAALRHNVAPIFICPPNADDDLLRQIASYGRGYTYLLSRAGVTGAENRAALPLNHLVAKLKEYNAAPPLQGFGISAPDQVKAAIDAGAAGAISGSAIVKIIEQHINEPEKMLAALKVFVQPMKAATRS

The variants in the data set derive from B1. Conditions: Escherichia coli (strain K12), pH 9, Thermal, DSC, Sodium tetraborate 1 mM, reversible: yes, structure 1WQ5, whole UniProt chain shown.

C154A: the Tm came out at 50.6 °C; the “change of melting temperature, mutant - wild type (higher = more stable)” value (“change of melting temperature, mutant” below) was -2.9 °C; the “heat capacity change of unfolding” value was 4.11 kcal/mol/K; the “unfolding enthalpy (calorimetric)” value worked out at 73 kcal/mol. Also, where the note is “50 °C”, the “ddG of mutation (higher = less stable)” value came to 1.03 kcal/mol, the “heat capacity change of unfolding” value is 4.11 kcal/mol/K and the unfolding free energy came to 0.14 kcal/mol.

As for C154V, the Tm amounted to 50.2 °C; the “change of melting temperature, mutant” value was -3.3 °C; the “heat capacity change of unfolding” value was determined as 4.21 kcal/mol/K; the “unfolding enthalpy (calorimetric)” value is 71.5 kcal/mol. Where the note is “50 °C”, the “ddG of mutation (higher = less stable)” value is 1.12 kcal/mol, the “heat capacity change of unfolding” value was found to be 4.21 kcal/mol/K and the unfolding free energy was determined as 0.05 kcal/mol.

Regarding C154S, the Tm came out at 45.3 °C; the “change of melting temperature, mutant” value was -8.2 °C; the “heat capacity change of unfolding” value worked out at 3.52 kcal/mol/K; the “unfolding enthalpy (calorimetric)” value amounted to 46.4 kcal/mol.

C118S: the Tm came to 45 °C; the “change of melting temperature, mutant” value is -8.5 °C; the “heat capacity change of unfolding” value worked out at 2.3 kcal/mol/K; the “unfolding enthalpy (calorimetric)” value turned out to be 75.6 kcal/mol.

Consider C118V, for which the Tm amounted to 49.3 °C; the “change of melting temperature, mutant” value is -4.2 °C; the “heat capacity change of unfolding” value was 2.42 kcal/mol/K; the “unfolding enthalpy (calorimetric)” value turned out to be 73 kcal/mol.

With C118A, the Tm turned out to be 49.2 °C; the “change of melting temperature, mutant” value was -4.3 °C; the “heat capacity change of unfolding” value was found to be 3.3 kcal/mol/K; the “unfolding enthalpy (calorimetric)” value is 82.3 kcal/mol.

In the case of C81A, the Tm worked out at 51.8 °C; the “change of melting temperature, mutant” value was -1.7 °C; the “heat capacity change of unfolding” value worked out at 4.11 kcal/mol/K; the “unfolding enthalpy (calorimetric)” value worked out at 83.5 kcal/mol. Besides, where the note is “50 °C”, the “ddG of mutation (higher = less stable)” value came out at 0.69 kcal/mol, the “heat capacity change of unfolding” value was 4.11 kcal/mol/K and the unfolding free energy worked out at 0.48 kcal/mol.

For C81G, the Tm came out at 48.7 °C; the “change of melting temperature, mutant” value was -4.8 °C; the “heat capacity change of unfolding” value came to 6.82 kcal/mol/K; the “unfolding enthalpy (calorimetric)” value came to 104 kcal/mol.

Regarding C81S, the Tm came to 49.1 °C; the “change of melting temperature, mutant” value is -4.4 °C; the “heat capacity change of unfolding” value came to 5.02 kcal/mol/K; the “unfolding enthalpy (calorimetric)” value was determined as 92.8 kcal/mol.

For the variant C81V, the Tm worked out at 49.1 °C; the “change of melting temperature, mutant” value was -4.4 °C; the “heat capacity change of unfolding” value was determined as 4.31 kcal/mol/K; the “unfolding enthalpy (calorimetric)” value amounted to 57.4 kcal/mol.
